In patent US20220332804A1 (CSL INNOVATION, published 2022):
Substitutions are numbered along the chain they refer to.

Assays:
Experiment in all cases: SPR, KD relative to WT C2;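 note: biacore SPR at 37 °C, anti-C2 mAbs captured via immobilised goat anti-human IgG, C2 alanine or serine surface mutants as analytes, 1:1 model fitted, double-referenced sensograms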
[1] = biological target: T1, human C2 L453A (human, UniProt P06681 21-752)
T1 sequence: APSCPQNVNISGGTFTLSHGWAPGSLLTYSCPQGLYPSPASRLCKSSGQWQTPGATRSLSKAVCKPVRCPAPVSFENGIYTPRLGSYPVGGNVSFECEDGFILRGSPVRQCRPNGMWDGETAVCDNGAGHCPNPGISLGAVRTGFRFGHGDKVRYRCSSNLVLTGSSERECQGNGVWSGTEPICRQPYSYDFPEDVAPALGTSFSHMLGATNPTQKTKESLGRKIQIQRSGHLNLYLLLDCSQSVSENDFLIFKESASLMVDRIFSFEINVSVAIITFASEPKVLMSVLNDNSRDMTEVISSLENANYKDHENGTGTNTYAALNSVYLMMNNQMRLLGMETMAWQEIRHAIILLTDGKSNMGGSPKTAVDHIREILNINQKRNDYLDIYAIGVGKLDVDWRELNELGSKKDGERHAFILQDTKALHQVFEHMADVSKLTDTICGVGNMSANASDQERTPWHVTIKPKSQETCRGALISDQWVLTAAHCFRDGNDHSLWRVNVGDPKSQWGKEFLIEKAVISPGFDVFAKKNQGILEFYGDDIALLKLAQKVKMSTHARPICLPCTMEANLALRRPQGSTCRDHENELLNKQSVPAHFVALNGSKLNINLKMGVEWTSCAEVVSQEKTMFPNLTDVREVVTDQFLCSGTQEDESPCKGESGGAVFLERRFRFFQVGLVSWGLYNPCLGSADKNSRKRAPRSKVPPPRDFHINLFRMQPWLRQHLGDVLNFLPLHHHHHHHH

[2] = biological target: T2, human C2 P704A (human, UniProt P06681 21-752)
T2 sequence: T1 sequence with A433L, P684A

[3] = biological target: T3, human C2 A326S (human, UniProt P06681 21-752)
T3 sequence: T1 sequence with A306S, A433L

[4] = biological target: T4, human C2 E532A (human, UniProt P06681 21-752)
T4 sequence: T1 sequence with A433L, E512A

B1: RF16-226 (antibody, human IgG4 S228P, lambda)
heavy: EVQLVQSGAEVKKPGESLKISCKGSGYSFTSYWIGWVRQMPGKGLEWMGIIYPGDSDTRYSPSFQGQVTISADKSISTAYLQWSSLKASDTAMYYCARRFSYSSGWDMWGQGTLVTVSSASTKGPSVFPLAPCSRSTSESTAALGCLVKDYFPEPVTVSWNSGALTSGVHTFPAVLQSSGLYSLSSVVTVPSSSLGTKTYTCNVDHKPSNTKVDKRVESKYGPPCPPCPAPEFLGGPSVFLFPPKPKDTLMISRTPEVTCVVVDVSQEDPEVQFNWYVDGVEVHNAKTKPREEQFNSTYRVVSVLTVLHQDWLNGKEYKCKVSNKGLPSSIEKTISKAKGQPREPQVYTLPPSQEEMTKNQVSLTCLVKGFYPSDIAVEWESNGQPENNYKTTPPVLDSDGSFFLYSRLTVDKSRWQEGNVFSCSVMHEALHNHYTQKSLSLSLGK
light: SYELTQPPSVSVSPGQTARITCSGDALTSKYVAWYQQKSGLAPLLVIYEDTRRPSGIPAKFSGSSSGSVATLTISGAHGDDEADYYCYSTDASGHQRVFGGGTKLTVLSQPKAAPSVTLFPPSSEELQANKATLVCLISDFYPGAVTVAWKADGSPVKAGVETTKPSKQSNNKYAASSYLSLTPEQWKSHRSYSCQVTHEGSTVEKTVAPTECS
notes: pH-dependent anti-C2 antibody from a phage display library; also called WT
- Fold diff [1]: 3 fold
- Fold diff [2]: 12 fold
- Fold diff [3]: 1 fold
- Fold diff [4]: 2 fold
